Measurements from paper PMC6698660.

Target: His-tagged Sinorhizobium meliloti DnaN (β-sliding clamp) (Sinorhizobium meliloti)
Assay: BLI

| kon [M⁻¹ s⁻¹] | Substance |
| --- | --- |
| 82000 | MBP-Flag-IEP fusion protein (MF-IEP) of the RmInt1 intron, made in E. coli (natural protein) |
| 44000 | MF-IEP104 (MF-IEP carrying substitution L104A) (natural protein) |
